Experimental data as given in US20210277140A1 (University of California, published 2021).
No end group written: not given here.

Assays:
SNAP-Syk tSH2 [1] = target: T1, SNAP-Syk tSH2 (mouse, UniProt P48025 1-262); experiment: liposome-based fluorescence quenching (FRET) assay; His10-FcRγ on NiNTA liposomes phosphorylated by Lck, 100 nM SNAP-505 Syk tSH2, receptor titrated 0-500 nM; apparent Kd, one site specific binding fit
Protocol: (§1) Experiments were carried out as previously described (Alvey C M et al., Current Biology 27:2065-2077, 2017). Briefly, proteins were purified using a bacterial expression system. All protein components (1 mg/ml BSA, 100 nM tSH2-Syk SNAP-505, 0 to 500 nM His10-CD3ζ or His10-FcRγ intracellular chain, and 7.2 nM His10-Lck Y505F) were mixed into kinase buffer (50 mM HEPES-NaOH pH 6.8, 150 mM NaCl, 10 mM MgCl₂, and 1 mM TCEP). Liposomes prepared at the following molar ratios: 74.5% POPC (Avanti, Catalog #850457C), 10% DOGS-NTA (Nickel) (Avanti, Catalog #790404C, 0.5% Rhodamine PE (Avanti, Catalog #810150C), and 15% DOPS (Avanti, Catalog #840035C) were added and the mixture was incubated for 40-60 minutes at room temperature, during which the SNAP-505 fluorescence was monitored at 8 s intervals with 504 nm excitation and 540 nm emission. 1 mM ATP was then injected to trigger Lck mediated phosphorylation of CD3ζ or FcRγ. Injection was followed by 5 seconds of automatic shaking of the plate, and the fluorescence was further monitored at 8 s intervals for at least 1 hr. Data were normalized by setting the average fluorescence value of the last 10 data points before ATP addition as 100% and background fluorescence as 0%. […]

SNAP-Syk tSH2 [2] = target: T1, SNAP-Syk tSH2; experiment: liposome-based fluorescence quenching assay: SNAP-505-labelled Syk tSH2 reporter, rhodamine-PE liposomes carrying His10-receptor tail (0 to 500 nM) phosphorylated by His10-Lck Y505F after ATP; Kd ± SE from a one-site specific binding fit
Protocol: as §1

- Kd (SNAP-Syk tSH2 [1]): ~30 nM
- Kd (SNAP-Syk tSH2 [2]): 31.2 nM
B1: His10-FcRγ (other, human)
chain: HHHHHHHHHHRLKIQVRKAAITSYEKSDGVYTGLSTRNQETYETLKHEKPP
modifications: not fully specified
notes: range 45-85; titrated 0 to 500 nM; also called His10-FcRγ intracellular chain; His10-FcRγ-chain
